The results in this text go back to patent US20110118131A1 (published 2011).

The chains are these.
B1: XPA23 Fab, heavy chain V50N (Fab, V domains shown)
VH: EVQLLESGGGLVQPGGSLRLSCAASGFTFSKYFMFWVRQAPGKGLEWVSNISPSGGMTRYADSVKGRFTISRDNSKNTLYLQMNSLRAEDTAVYYCARVGYGGNSDYWGQGTLVTVSS
VL: DIQMTQSPSSVSASVGDRLTIICRASQDINRWLAWYQQTPGNAPKLLIHSATSLQSGVPSRFSGSGSGTDFTLTINSLQPEDFATYYCQQADSFPLTFGGGTKVEIK
B2: XPA23 Fab, heavy chain D106K (Fab, V domains shown)
VH: EVQLLESGGGLVQPGGSLRLSCAASGFTFSKYFMFWVRQAPGKGLEWVSVISPSGGMTRYADSVKGRFTISRDNSKNTLYLQMNSLRAEDTAVYYCARVGYGGNSKYWGQGTLVTVSS
VL: DIQMTQSPSSVSASVGDRLTIICRASQDINRWLAWYQQTPGNAPKLLIHSATSLQSGVPSRFSGSGSGTDFTLTINSLQPEDFATYYCQQADSFPLTFGGGTKVEIK
B3: XPA23 Fab, heavy chain D106F (Fab, V domains shown)
VH: EVQLLESGGGLVQPGGSLRLSCAASGFTFSKYFMFWVRQAPGKGLEWVSVISPSGGMTRYADSVKGRFTISRDNSKNTLYLQMNSLRAEDTAVYYCARVGYGGNSFYWGQGTLVTVSS
VL: DIQMTQSPSSVSASVGDRLTIICRASQDINRWLAWYQQTPGNAPKLLIHSATSLQSGVPSRFSGSGSGTDFTLTINSLQPEDFATYYCQQADSFPLTFGGGTKVEIK
B4: XPA23 Fab, heavy chain D106Q (Fab, V domains shown)
VH: EVQLLESGGGLVQPGGSLRLSCAASGFTFSKYFMFWVRQAPGKGLEWVSVISPSGGMTRYADSVKGRFTISRDNSKNTLYLQMNSLRAEDTAVYYCARVGYGGNSQYWGQGTLVTVSS
VL: DIQMTQSPSSVSASVGDRLTIICRASQDINRWLAWYQQTPGNAPKLLIHSATSLQSGVPSRFSGSGSGTDFTLTINSLQPEDFATYYCQQADSFPLTFGGGTKVEIK
B5: XPA23 Fab, heavy chain D106N (Fab, V domains shown)
VH: EVQLLESGGGLVQPGGSLRLSCAASGFTFSKYFMFWVRQAPGKGLEWVSVISPSGGMTRYADSVKGRFTISRDNSKNTLYLQMNSLRAEDTAVYYCARVGYGGNSNYWGQGTLVTVSS
VL: DIQMTQSPSSVSASVGDRLTIICRASQDINRWLAWYQQTPGNAPKLLIHSATSLQSGVPSRFSGSGSGTDFTLTINSLQPEDFATYYCQQADSFPLTFGGGTKVEIK
B6: XPA23 Fab, heavy chain D106R (Fab, V domains shown)
VH: EVQLLESGGGLVQPGGSLRLSCAASGFTFSKYFMFWVRQAPGKGLEWVSVISPSGGMTRYADSVKGRFTISRDNSKNTLYLQMNSLRAEDTAVYYCARVGYGGNSRYWGQGTLVTVSS
VL: DIQMTQSPSSVSASVGDRLTIICRASQDINRWLAWYQQTPGNAPKLLIHSATSLQSGVPSRFSGSGSGTDFTLTINSLQPEDFATYYCQQADSFPLTFGGGTKVEIK
B7: XPA23 Fab, heavy chain D106E (Fab, V domains shown)
VH: EVQLLESGGGLVQPGGSLRLSCAASGFTFSKYFMFWVRQAPGKGLEWVSVISPSGGMTRYADSVKGRFTISRDNSKNTLYLQMNSLRAEDTAVYYCARVGYGGNSEYWGQGTLVTVSS
VL: DIQMTQSPSSVSASVGDRLTIICRASQDINRWLAWYQQTPGNAPKLLIHSATSLQSGVPSRFSGSGSGTDFTLTINSLQPEDFATYYCQQADSFPLTFGGGTKVEIK
B8: XPA23 Fab, heavy chain D106H (Fab, V domains shown)
VH: EVQLLESGGGLVQPGGSLRLSCAASGFTFSKYFMFWVRQAPGKGLEWVSVISPSGGMTRYADSVKGRFTISRDNSKNTLYLQMNSLRAEDTAVYYCARVGYGGNSHYWGQGTLVTVSS
VL: DIQMTQSPSSVSASVGDRLTIICRASQDINRWLAWYQQTPGNAPKLLIHSATSLQSGVPSRFSGSGSGTDFTLTINSLQPEDFATYYCQQADSFPLTFGGGTKVEIK

The target in the test is T1, IL-1beta (UniProt P01584 117-269).
T1 construct: also called IL-1β
Description: Biacore.
On to B1, for which the “fold difference in affinity vs parental” value was 0.03 fold. In the case of B2, the “fold difference in affinity vs parental” value turned out to be 0.04 fold.

As for B3, the binding result was “no binding”. As to B4, the “fold difference in affinity vs parental” value worked out at 0.02 fold.

Take B5: the “fold difference in affinity vs parental” value amounted to 0.07 fold. For the molecule B6, the “fold difference in affinity vs parental” value turned out to be 0.06 fold. On the same count and under the same terms, as for B7, the figure is 0.04 fold; as for B8, 0.02 fold.
